Here are results for three molecules from US20050112121A1 (YALE UNIVERSITY, published 2005).

First the molecules themselves.
B1: Serrate (Drosophila), expression construct Ser-mtn (ligand, UniProt P18168 83-1407, looked up)
chain: AGNFELEILEISNTNSHLLNGYCCGMPAELRATKTIGCSPCTTAFRLCLKEYQTTEQGASISTGCSFGNATTKILGGSSFVLSDPGVGAIVLPFTFRWTKSFTLILQALDMYNTSYPDAERLIEETSYSGVILPSPEWKTLDHIGRNARITYRVRVQCAVTYYNTTCTTFCRPRDDQFGHYACGSEGQKLCLNGWQGVNCEEAICKAGCDPVHGKCDRPGECECRPGWRGPLCNECMVYPGCKHGSCNGSAWKCVCDTNWGGILCDQDLNFCGTHEPCKHGGTCENTAPDKYRCTCAEGLSGEQCEIVEHPCATRPCRNGGTCTLKTSNRTQAQVYRTSHGRSNMGRPVRRSSSMRSLDHLRPEGQALNGSSSPGLVSLGSLQLQQQLAPDFTCDCAAGWTGPTCEINIDECAGGPCEHGGTCIDLIGGFRCECPPEWHGDVCQVDVNECEAPHSAGIAANALLTTTATAIIGSNLSSTALLAALTSAVASTSLAIGPCINAKECRNQPGSFACICKEGWGGVTCAENLDDCVGQCRNGATCIDLVNDYRCACASGFKGRDCETDIDECATSPCRNGGECVDMVGKFNCICPLGYSGSLCEEAKENCTPSPCLEGHCLNTPEGYYCHCPPDRAGKHCEQLRPLCSQPPCNEGCFANVSLATSATTTTTTTTTATTTRKMAKPSGLPCSGHGSCEMSDVGTFCKCHVGHTGTFCEHNLNECSPNPCRNGGICLDGDGDFTCECMSGWTGKRCSERATGCYAGQCQNGGTCMPGAPDKALQPHCRCAPGWTGLFCAEAIDQCRGQPCHNGGTCESGAGWFRCVCAQGFSGPDCRINVNECSPQPCQGGATCIDGIGGYSCICPPGRHGLRCEILLSDPKSACQNASNTISPYTALNRSQNWLDIALTGRTEDDENCNACVCENGTSRCTNLWCGLPNCYKVDPLSKSSNLSGVCKQHEVCVPALSETCLSSPCNVRGDCRALEPSRRVAPPRLPAKSSCWPNQAVVNENCARLTILLALERVGKGASVEGLCSLVRVLLAAQLIKKPASTFGQDPGMLMVLCDLKTGTNDTVELTVSSSKLNDPQLPVAVGLLGELLSFRQLNGIQRRKELELQHAKLAALTSIVEVKLETARVADGSGHSLLIGVLCGVFIVLVGFSVFISLYWKQRLAYRTSSGMNLTPSLDALRHEEEKSNNLQNEENLRRYTNPLKGSTSSLRAATGMELSLNPAPELAASAASSSALHRSQPLFPPCDFERELDSSTGLKQAHKRSSQILLHKTQNSDMRKNTVGSLDSPRKDFGKRSINCKSMPPSSGDEGSDVLATTVMV
notes: whole, on cells

Data set [1] addresses Delta (Drosophila), expression construct pMTDl1 (Drosophila) (UniProt P10041). Nature of the data set: S2 cell aggregation, 24 hr.
For data set [2] the target is unchanged. As to the kind of experiment: S2 cell aggregation, 48 hr.
The target in data set [3] is Notch (Drosophila), full length Notch expression construct #1 pMtNMg (Drosophila) (UniProt P07207). As to the kind of experiment: S2 cell aggregation, 24 hr, Notch+ cells alone.
For data set [4], the target named is Delta (Drosophila), expression construct pMTDl1 (Drosophila) (UniProt P10041). As to the kind of experiment: S2 cell aggregation at 4 C, 1-2 hr, Notch+ cells pretreated with preimmune mouse sera (control; one of three experiments).
Data set [5] deals with the molecule itself. Nature of the data set: S2 cell aggregation assay. The text has this:
(§1) FIG. 2. Notch Expression Constructs and the Deletion Mapping of the Delta/Serrate Binding Domain. S2 cells in log phase growth were transiently transfected with the series of expression constructs shown; the drawings represent the predicted protein products of the various Notch deletion mutants created. All expression constructs were derived from construct #1 pMtNMg. Transiently transfected cells were mixed with Delta expressing cells from the stably transformed line L49-6-7 or with transiently transfected Serrate expressing cells, induced with CuSO₄, incubated under aggregation conditions and then scored for their ability to aggregate using specific antisera and immunofluorescence microscopy. Aggregates were defined as clusters of four or more cells containing both Notch and Delta/Serrate expressing cells. The values given for % Aggregation refer to the percentage of all Notch expressing cells found in such clusters either with Delta (Dl) (left column) or with Serrate (Ser) (right column). The various Notch deletion constructs are represented diagrammatically with splice lines indicating the ligation junctions. Each EGF repeat is denoted as a stippled rectangular box and numbers of the EGF repeats on either side of a ligation junction are noted. At the ligation junctions, partial EGF repeats produced by the various deletions are denoted by open boxes and closed brackets (for example see #23 ΔCla+EGF(10-12)). Constructs #3-13 represent the ClaI deletion series. As diagrammed, four of the ClaI sites, in repeats 7, 9, 17 and 26, break the repeat in the middle, immediately after the third cysteine (denoted by open box repeats; see FIG. 3 for further clarification), while the fifth and most 3′ site breaks neatly between EGF repeats 30 and 31 (denoted by closed box repeat 31; again see FIG. 3). In construct #15 split, EGF repeat 14 which carries the split point mutation, is drawn as a striped box. In construct #33 ΔCla+XEGF(10-13), the Xenopus Notch derived EGF repeats are distinguished from Drosophila repeats by a different pattern of shading. […]

Data set [6] has as its target T1, Notch (Drosophila), full length Notch expression construct #1 pMtNMg (Drosophila, UniProt P07207 53-2703).
T1 construct: whole, on cells; also called intact Notch; Notch+ cells
Nature of the data set: S2 cell aggregation assay.
From the text: as §1

In data set [7] the target is B1. As to the kind of experiment: S2 cell aggregation assay.
From the text: as §1

T1 sequence (P07207 53-2703): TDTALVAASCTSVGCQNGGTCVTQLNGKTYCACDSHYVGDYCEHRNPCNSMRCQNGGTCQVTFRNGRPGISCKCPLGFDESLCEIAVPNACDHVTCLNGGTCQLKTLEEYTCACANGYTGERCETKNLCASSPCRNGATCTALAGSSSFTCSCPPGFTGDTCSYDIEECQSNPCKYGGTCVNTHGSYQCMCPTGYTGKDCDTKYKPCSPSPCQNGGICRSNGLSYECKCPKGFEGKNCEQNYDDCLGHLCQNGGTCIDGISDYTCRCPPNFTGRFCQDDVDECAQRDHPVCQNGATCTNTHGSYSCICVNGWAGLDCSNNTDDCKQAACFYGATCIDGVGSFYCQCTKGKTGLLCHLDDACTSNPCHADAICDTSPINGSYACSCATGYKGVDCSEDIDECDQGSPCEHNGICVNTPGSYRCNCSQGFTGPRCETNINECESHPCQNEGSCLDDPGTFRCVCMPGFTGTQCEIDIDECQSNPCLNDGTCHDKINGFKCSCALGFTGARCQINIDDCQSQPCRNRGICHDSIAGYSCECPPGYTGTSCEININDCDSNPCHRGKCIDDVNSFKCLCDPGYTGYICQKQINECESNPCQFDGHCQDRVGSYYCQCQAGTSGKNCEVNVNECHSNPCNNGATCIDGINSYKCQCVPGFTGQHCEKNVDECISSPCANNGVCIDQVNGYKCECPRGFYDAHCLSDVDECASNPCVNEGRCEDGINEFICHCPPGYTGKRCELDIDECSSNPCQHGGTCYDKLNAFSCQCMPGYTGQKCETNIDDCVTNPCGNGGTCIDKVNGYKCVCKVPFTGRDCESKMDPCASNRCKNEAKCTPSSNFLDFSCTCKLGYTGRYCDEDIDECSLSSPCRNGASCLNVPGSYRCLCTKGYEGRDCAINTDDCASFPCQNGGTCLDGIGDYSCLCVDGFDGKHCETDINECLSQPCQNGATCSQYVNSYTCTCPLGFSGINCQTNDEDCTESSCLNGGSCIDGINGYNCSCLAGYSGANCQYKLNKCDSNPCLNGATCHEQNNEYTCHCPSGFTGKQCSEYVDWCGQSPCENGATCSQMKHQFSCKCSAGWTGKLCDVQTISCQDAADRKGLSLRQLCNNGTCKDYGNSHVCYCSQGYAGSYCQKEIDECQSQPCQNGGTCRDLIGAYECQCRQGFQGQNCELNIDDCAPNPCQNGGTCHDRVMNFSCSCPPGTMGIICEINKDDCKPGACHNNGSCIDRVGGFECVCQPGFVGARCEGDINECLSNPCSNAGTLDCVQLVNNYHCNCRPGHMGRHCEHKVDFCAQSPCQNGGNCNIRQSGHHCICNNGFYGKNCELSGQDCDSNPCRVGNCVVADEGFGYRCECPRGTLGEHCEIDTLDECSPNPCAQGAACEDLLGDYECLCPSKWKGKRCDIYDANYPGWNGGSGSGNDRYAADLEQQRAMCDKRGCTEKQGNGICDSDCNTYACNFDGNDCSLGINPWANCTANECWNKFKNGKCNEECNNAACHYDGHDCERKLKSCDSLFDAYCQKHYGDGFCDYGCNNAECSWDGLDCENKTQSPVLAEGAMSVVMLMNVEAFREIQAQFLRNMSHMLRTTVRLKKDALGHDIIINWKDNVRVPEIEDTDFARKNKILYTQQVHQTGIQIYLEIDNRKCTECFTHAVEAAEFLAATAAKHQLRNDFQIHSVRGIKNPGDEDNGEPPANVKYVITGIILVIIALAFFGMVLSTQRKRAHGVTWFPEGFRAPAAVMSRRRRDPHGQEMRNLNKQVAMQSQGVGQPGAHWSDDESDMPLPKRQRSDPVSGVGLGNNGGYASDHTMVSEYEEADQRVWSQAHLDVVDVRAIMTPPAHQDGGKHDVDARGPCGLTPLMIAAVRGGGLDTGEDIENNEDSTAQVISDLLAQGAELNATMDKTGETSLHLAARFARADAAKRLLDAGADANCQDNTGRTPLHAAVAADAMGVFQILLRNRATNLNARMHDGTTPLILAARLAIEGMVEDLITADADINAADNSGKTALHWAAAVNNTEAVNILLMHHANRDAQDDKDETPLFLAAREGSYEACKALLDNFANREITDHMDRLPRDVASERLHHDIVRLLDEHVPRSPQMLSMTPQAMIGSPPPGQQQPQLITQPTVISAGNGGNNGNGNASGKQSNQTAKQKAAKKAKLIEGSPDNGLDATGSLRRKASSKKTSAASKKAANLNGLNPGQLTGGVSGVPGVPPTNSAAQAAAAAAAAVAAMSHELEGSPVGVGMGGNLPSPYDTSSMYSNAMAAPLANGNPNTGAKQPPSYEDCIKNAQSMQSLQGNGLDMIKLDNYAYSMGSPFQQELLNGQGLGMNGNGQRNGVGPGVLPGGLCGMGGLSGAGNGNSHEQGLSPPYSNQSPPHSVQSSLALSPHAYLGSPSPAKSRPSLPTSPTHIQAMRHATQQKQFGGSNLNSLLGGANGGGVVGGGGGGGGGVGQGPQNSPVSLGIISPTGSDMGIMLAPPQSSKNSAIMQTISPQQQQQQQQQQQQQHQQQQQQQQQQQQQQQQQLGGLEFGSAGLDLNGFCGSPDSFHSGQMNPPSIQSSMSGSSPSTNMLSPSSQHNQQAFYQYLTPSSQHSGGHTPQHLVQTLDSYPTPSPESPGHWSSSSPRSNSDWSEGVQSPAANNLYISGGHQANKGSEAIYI

As for “Notch (Drosophila), full length Notch expression construct #1 pMtNMg, P07207 53-2703”, the fraction of expressing cells found in clusters of four or more stained cells in data set [1] was 32 to 54%; in data set [3] it was -0 to 5%. This molecule registered a degree of aggregation in data set [2] of 63 to 71%. Further, the % of Notch+ cells in Notch+-Delta+ cell aggregates in data set [4] was 23%.
For B1, the binding result in data set [5] is “no binding”.

B2: Delta (Drosophila), expression construct pMTDl1 (ligand)
chain: QVHSSGSFELRLKYFSNDHGRDNEGRCCSGESDGATGKCLGSCKTRFRVCLKHYQATIDTTSQCTYGDVITPILGENSVNLTDAQRFQNKGFTNPIQFPFSFSWPGTFSLIVEAWHDTNNSGNARTNKLLIQRLLVQQVLEVSSEWKTNKSESQYTSLEYDFRVTCDLNYYGSGCAKFCRPRDDSFGHSTCSETGEIICLTGWQGDYCHIPKCAKGCEHGHCDKPNQCVCQLGWKGALCNECVLEPNCIHGTCNKPWTCICNEGWGGLYCNQDLNYCTNHRPCKNGGTCFNTGEGLYTCKCAPGYSGDDCENEIYSCDADVNPCQNGGTCIDEPHTKTGYKCHCANGWSGKMCEEKVLTCSDKPCHQGICRNVRPGLGSKGQGYQCECPIGYSGPNCDLQLDNCSPNPCINGGSCQPSGKCICPAGFSGTRCETNIDDCLGHQCENGGTCIDMVNQYRCQCVPGFHGTHCSSKVDLCLIRPCANGGTCLNLNNDYQCTCRAGFTGKDCSVDIDECSSGPCHNGGTCMNRVNSFECVCANGFRGKQCDEESYDSVTFDAHQYGATTQARADGLTNAQVVLIAVFSVAMPLVAVIAACVVFCMKRKRKRAQEKDDAEARKQNEQNAVATMHHNGSGVGVALASASLGGKTGSNSGLTFDGGNPNIIKNTWDKSVNNICASAAAAAAAAAAADECLMYGGYVASVADNNNANSDFCVAPLQRAKSQKQLNTDPTLMHRGSPAGSSAKGASGGGPGAAEGKRISVLGEGSYCSQRWPSLAAAGVAGACSSQLMAAASAAGSGAGTAQQQRSVVCGTPHM
notes: also called Delta+ cells; L49-6-7 stably transformed Delta expressing cell line
For the molecule B2, the binding result in data set [6] is reported as “binds”; in data set [7], “no binding”.
